In PMC5222588, “Binding of Myomesin to Obscurin-Like-1 at the Muscle M-Band Provides a Strategy for Isoform-Specific Mechanical Protection” (Structure(London, England:1993), 2017):
Blank lines part the entries; values can stand above or below the molecule they belong to.

Assays:
[1] = target: OL3:My4LMy5 complex (obscurin-like-1:myomesin heterodimer) (human) (UniProt O75147); experiment: SEC; Superdex S75 10/300; OL3:My4LMy5 complex injected at 3.0 and 8.2 mg/mL (0.082–0.225 mM); dimer of heterodimers to heterodimers
[2] = target: OL3:My4LMy5 complex (obscurin-like-1:myomesin heterodimer) (human) (UniProt O75147); experiment: crystal structure; OL3:My4LMy5 complex at 3.0 mg/mL; 20% PEG8000, 0.1 M Tris-HCl pH 8.5, 0.2 M MgCl2, matrix microseeding; 3.1 Å, space group C2
[3] = target: T1, obscurin-like-1 third immunoglobulin domain (OL3) (human, UniProt O75147 251-339); experiment: SEC; GST-cleaved complexes co-expressed in E. coli from a bicistronic vector; SEC during purification; conditions: both partners purified
T1 construct: obscurin-like-1, human, third Ig domain (OL3); the printed contact residues F265 to V332 lie in it; Insoluble when expressed alone; obtained only by co-expression with myomesin; Construct limits are in the Supplemental Experimental Procedures; source: E. coli, co-expressed with myomesin from a bicistronic vector, purified as a complex (SEC); not shown: GST, N-terminal, cleaved
T1 sequence: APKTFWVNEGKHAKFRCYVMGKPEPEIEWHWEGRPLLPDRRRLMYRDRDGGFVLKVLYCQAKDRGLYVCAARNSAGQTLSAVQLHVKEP

[4] = target: T2, obscurin third immunoglobulin domain (O3) (human, UniProt Q5VST9 236-331); experiment: as above; conditions: both partners purified
T2 construct: obscurin, human, third Ig domain (O3); Insoluble when expressed alone; source: E. coli, co-expressed with myomesin My4LMy5 from a bicistronic vector, purified as a complex (SEC); not shown: GST, N-terminal, cleaved
T2 sequence (looked up): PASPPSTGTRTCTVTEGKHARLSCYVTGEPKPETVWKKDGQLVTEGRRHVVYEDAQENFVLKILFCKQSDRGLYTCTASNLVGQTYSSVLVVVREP

- dimer:monomer ratio at 8.2 mg/mL [1]: 30 % dimer
- stoichiometry N [1]: 2
- stoichiometry N [2]: 2
Molecule: OL3:My4LMy5 complex (obscurin-like-1:myomesin heterodimer) (from UniProt O75147 251-339; P52179 510-739)

- stoichiometry N [3]: 1
- stoichiometry N [4]: 1
B1: myomesin region encompassing the fourth and fifth Fn-III domains (My4LMy5) (domain or fragment, human)
chain: PAAPLDVKCLEANKDYIIISWKQPAVDGGSPILGYFIDKCEVGTDSWSQCNDTPVKFARFPVTGLIEGRSYIFRVRAVNKMGIGFPSRVSEPVAALDPAEKARLKSRPSAPWTGQIIVTEEEPSEGIVPGPPTDLSVTEATRSYVVLSWKPPGQRGHEGIMYFVEKCEAGTENWQRVNTELPVKSPRFALFDLAEGKSYCFRVRCSNSAGVGEPSEATEVTVVGDKLDIP
notes: myomesin (MYOM1), human, Fn-III domains My4 and My5 with the linker L between them; My4 begins near residue 510 (My4LH is 510-618); My5 is in the crystallised protein but invisible in the electron density; Construct limits are in the Supplemental Experimental Procedures; also called My4L (name of the part visible in the crystal); source: E. coli, co-expressed with GST-OL3 or GST-O3 from a …
